Reference: paper PMC3776215
pIC50, pKd: −log10 of the molar value.

The substances below were run against Recombinant human urokinase-type plasminogen activator receptor (uPAR) (human) (UniProt Q03405) (assay: SPR).
Sequence of UniProt Q03405 (Q03405 23-305): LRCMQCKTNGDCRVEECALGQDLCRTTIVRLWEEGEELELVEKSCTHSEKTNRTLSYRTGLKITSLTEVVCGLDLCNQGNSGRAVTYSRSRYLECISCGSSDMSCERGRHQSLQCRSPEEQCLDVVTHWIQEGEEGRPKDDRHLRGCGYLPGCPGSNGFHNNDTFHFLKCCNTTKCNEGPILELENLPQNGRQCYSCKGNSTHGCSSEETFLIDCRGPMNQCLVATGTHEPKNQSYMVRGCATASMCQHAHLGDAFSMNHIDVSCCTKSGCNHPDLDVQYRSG

CB-TE2A-PA-AE105^mut (peptide) and DOTA-AE105^mut (peptide) cannot be ordered by pIC50: under 6.00 for the first, under 6.00 for the second.

DOTA-AE105 (peptide) and CB-TE2A-AE105 (peptide) are within 0.2 log units of each other in pIC50: 8.17 for the first, 8.23 for the second.

“AE105 (Asp-Cha-Phe-(D)Ser-(D)Arg-Tyr-Leu-Trp-Ser) (peptide)” and CB-TE2A-PA-AE105 (peptide) are within 0.2 log units of each other in pIC50: 8.17 for the first, 8.21 for the second.

CB-TE2A-AE105^mut (peptide) showed a pIC50 of under 6.00.

DOTA-AE105 (peptide) and CB-TE2A-AE105 (peptide) are within 0.2 log units of each other in pKd: 8.03 for the first, 8.11 for the second.

CB-TE2A-PA-AE105 (peptide) gave a pKd of 7.57.

DOTA-AE105 (peptide) and CB-TE2A-AE105 (peptide) are within 1.5-fold of each other in koff: 0.0043 s⁻¹ for the first, 0.0046 s⁻¹ for the second.

In the case of CB-TE2A-PA-AE105 (peptide), the koff was 0.0108 s⁻¹.

DOTA-AE105 (peptide) and “AE105 (Asp-Cha-Phe-(D)Ser-(D)Arg-Tyr-Leu-Trp-Ser) (peptide)” are within 1.5-fold of each other in kon: 460000 M⁻¹ s⁻¹ for the first, 620000 M⁻¹ s⁻¹ for the second.

Substance CB-TE2A-PA-AE105 (peptide) has a kon of 400000 M⁻¹ s⁻¹.
